Source: the supplement of paper PMC11811203

B1: THAP1; numbered along this chain (parent)
chain: MVQSCSAYGCKNRYDKDKPVSFHKFPLTRPSLCKEWEAAVRRKNFKPTKYSSICSEHFTPDCFKRECNNKLLKENAVPTIFLCTEPHDKKEDLLEPQEQLPPPPLPPPVSQVDAAIGLLMPPLQTPVNLSVFCDHNYTVEDTMHQRKRIHQLEQQVEKLRKKLKTAQQRCRRQERQLEKLKEVVHFQKEKDDVSERGYVILPNDYFEIVEVPA

Variants of: B1
Assay: THAP1 transcriptional activity (GFP+/GFP- enrichment relative to wild-type constructs) (ratio to WT); higher = more THAP1 activity (PSMB5 reporter activation)
Conditions: with PSMB5 promoter-GFP reporter
Method in brief: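 Activity values are replicate-mean bright/dim read fold changes divided by the mean of wild-type synonymous constructs. They come from a human THAP1 site-saturation library (residues 2–213, each changed to all 20 amino acids) delivered by lentivirus at MOI ~0.3, in duplicate, into THAP1-knockout HEK-293T cells with mClover3 at endogenous PSMB5. BFP+ cells were sorted into GFP-dim and GFP-bright bins after five days, and variants were counted by Illumina sequencing of genomic DNA amplicons.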

Variant	THAP1 transcriptional activity
MVQSCSAYGCKNRYDKDKPVSFHKFPLTRPSLCKEWEAAVRRKNFKPTKYSSICSEHFTPDCFKRECNNKLLKENAVPTIFLCTEPHDKKEDLLEPQEQLPPPPLPPPVSQVDAAIGLLMPPLQTPVNLSVFCDHNYTVEDTMHQRKRIHQLEQQVEKLRKKLKTALQRCRRQERQLEKLKEVVHFQKEKDDVSERGYVILPNDYFEIVEVPA [Q167L]	0.245
MVQSCSAYGCKNRYDKDKPVSFHKFPLTRPSLCKEWEAAVRRKNFKPTKYSSICSEHFTPDCFKRECNNKLLKENAVPTIFLCTEPHDKKEDLLEPQEQLPPPPLPPPVSQVDAAIGLLMPPLQTPVNLSVFCDHNYTVEDTMHQRKRIHQLEQQVEKLRKKLKTAMQRCRRQERQLEKLKEVVHFQKEKDDVSERGYVILPNDYFEIVEVPA [Q167M]	0.699
MVQSCSAYGCKNRYDKDKPVSFHKFPLTRPSLCKEWEAAVRRKNFKPTKYSSICSEHFTPDCFKRECNNKLLKENAVPTIFLCTEPHDKKEDLLEPQEQLPPPPLPPPVSQVDAAIGLLMPPLQTPVNLSVFCDHNYTVEDTMHQRKRIHQLEQQVEKLRKKLKTANQRCRRQERQLEKLKEVVHFQKEKDDVSERGYVILPNDYFEIVEVPA [Q167N]	0.559
MVQSCSAYGCKNRYDKDKPVSFHKFPLTRPSLCKEWEAAVRRKNFKPTKYSSICSEHFTPDCFKRECNNKLLKENAVPTIFLCTEPHDKKEDLLEPQEQLPPPPLPPPVSQVDAAIGLLMPPLQTPVNLSVFCDHNYTVEDTMHQRKRIHQLEQQVEKLRKKLKTAPQRCRRQERQLEKLKEVVHFQKEKDDVSERGYVILPNDYFEIVEVPA [Q167P]	0.13
MVQSCSAYGCKNRYDKDKPVSFHKFPLTRPSLCKEWEAAVRRKNFKPTKYSSICSEHFTPDCFKRECNNKLLKENAVPTIFLCTEPHDKKEDLLEPQEQLPPPPLPPPVSQVDAAIGLLMPPLQTPVNLSVFCDHNYTVEDTMHQRKRIHQLEQQVEKLRKKLKTARQRCRRQERQLEKLKEVVHFQKEKDDVSERGYVILPNDYFEIVEVPA [Q167R]	0.415
MVQSCSAYGCKNRYDKDKPVSFHKFPLTRPSLCKEWEAAVRRKNFKPTKYSSICSEHFTPDCFKRECNNKLLKENAVPTIFLCTEPHDKKEDLLEPQEQLPPPPLPPPVSQVDAAIGLLMPPLQTPVNLSVFCDHNYTVEDTMHQRKRIHQLEQQVEKLRKKLKTASQRCRRQERQLEKLKEVVHFQKEKDDVSERGYVILPNDYFEIVEVPA [Q167S]	0.649
MVQSCSAYGCKNRYDKDKPVSFHKFPLTRPSLCKEWEAAVRRKNFKPTKYSSICSEHFTPDCFKRECNNKLLKENAVPTIFLCTEPHDKKEDLLEPQEQLPPPPLPPPVSQVDAAIGLLMPPLQTPVNLSVFCDHNYTVEDTMHQRKRIHQLEQQVEKLRKKLKTATQRCRRQERQLEKLKEVVHFQKEKDDVSERGYVILPNDYFEIVEVPA [Q167T]	0.585
MVQSCSAYGCKNRYDKDKPVSFHKFPLTRPSLCKEWEAAVRRKNFKPTKYSSICSEHFTPDCFKRECNNKLLKENAVPTIFLCTEPHDKKEDLLEPQEQLPPPPLPPPVSQVDAAIGLLMPPLQTPVNLSVFCDHNYTVEDTMHQRKRIHQLEQQVEKLRKKLKTAVQRCRRQERQLEKLKEVVHFQKEKDDVSERGYVILPNDYFEIVEVPA [Q167V]	0.351
MVQSCSAYGCKNRYDKDKPVSFHKFPLTRPSLCKEWEAAVRRKNFKPTKYSSICSEHFTPDCFKRECNNKLLKENAVPTIFLCTEPHDKKEDLLEPQEQLPPPPLPPPVSQVDAAIGLLMPPLQTPVNLSVFCDHNYTVEDTMHQRKRIHQLEQQVEKLRKKLKTAWQRCRRQERQLEKLKEVVHFQKEKDDVSERGYVILPNDYFEIVEVPA [Q167W]	0.235
MVQSCSAYGCKNRYDKDKPVSFHKFPLTRPSLCKEWEAAVRRKNFKPTKYSSICSEHFTPDCFKRECNNKLLKENAVPTIFLCTEPHDKKEDLLEPQEQLPPPPLPPPVSQVDAAIGLLMPPLQTPVNLSVFCDHNYTVEDTMHQRKRIHQLEQQVEKLRKKLKTAQCRCRRQERQLEKLKEVVHFQKEKDDVSERGYVILPNDYFEIVEVPA [Q168C]	0.512
MVQSCSAYGCKNRYDKDKPVSFHKFPLTRPSLCKEWEAAVRRKNFKPTKYSSICSEHFTPDCFKRECNNKLLKENAVPTIFLCTEPHDKKEDLLEPQEQLPPPPLPPPVSQVDAAIGLLMPPLQTPVNLSVFCDHNYTVEDTMHQRKRIHQLEQQVEKLRKKLKTAQDRCRRQERQLEKLKEVVHFQKEKDDVSERGYVILPNDYFEIVEVPA [Q168D]	0.417
MVQSCSAYGCKNRYDKDKPVSFHKFPLTRPSLCKEWEAAVRRKNFKPTKYSSICSEHFTPDCFKRECNNKLLKENAVPTIFLCTEPHDKKEDLLEPQEQLPPPPLPPPVSQVDAAIGLLMPPLQTPVNLSVFCDHNYTVEDTMHQRKRIHQLEQQVEKLRKKLKTAQERCRRQERQLEKLKEVVHFQKEKDDVSERGYVILPNDYFEIVEVPA [Q168E]	0.498
MVQSCSAYGCKNRYDKDKPVSFHKFPLTRPSLCKEWEAAVRRKNFKPTKYSSICSEHFTPDCFKRECNNKLLKENAVPTIFLCTEPHDKKEDLLEPQEQLPPPPLPPPVSQVDAAIGLLMPPLQTPVNLSVFCDHNYTVEDTMHQRKRIHQLEQQVEKLRKKLKTAQFRCRRQERQLEKLKEVVHFQKEKDDVSERGYVILPNDYFEIVEVPA [Q168F]	0.256
MVQSCSAYGCKNRYDKDKPVSFHKFPLTRPSLCKEWEAAVRRKNFKPTKYSSICSEHFTPDCFKRECNNKLLKENAVPTIFLCTEPHDKKEDLLEPQEQLPPPPLPPPVSQVDAAIGLLMPPLQTPVNLSVFCDHNYTVEDTMHQRKRIHQLEQQVEKLRKKLKTAQGRCRRQERQLEKLKEVVHFQKEKDDVSERGYVILPNDYFEIVEVPA [Q168G]	0.391
MVQSCSAYGCKNRYDKDKPVSFHKFPLTRPSLCKEWEAAVRRKNFKPTKYSSICSEHFTPDCFKRECNNKLLKENAVPTIFLCTEPHDKKEDLLEPQEQLPPPPLPPPVSQVDAAIGLLMPPLQTPVNLSVFCDHNYTVEDTMHQRKRIHQLEQQVEKLRKKLKTAQHRCRRQERQLEKLKEVVHFQKEKDDVSERGYVILPNDYFEIVEVPA [Q168H]	0.394
MVQSCSAYGCKNRYDKDKPVSFHKFPLTRPSLCKEWEAAVRRKNFKPTKYSSICSEHFTPDCFKRECNNKLLKENAVPTIFLCTEPHDKKEDLLEPQEQLPPPPLPPPVSQVDAAIGLLMPPLQTPVNLSVFCDHNYTVEDTMHQRKRIHQLEQQVEKLRKKLKTAQKRCRRQERQLEKLKEVVHFQKEKDDVSERGYVILPNDYFEIVEVPA [Q168K]	0.394
MVQSCSAYGCKNRYDKDKPVSFHKFPLTRPSLCKEWEAAVRRKNFKPTKYSSICSEHFTPDCFKRECNNKLLKENAVPTIFLCTEPHDKKEDLLEPQEQLPPPPLPPPVSQVDAAIGLLMPPLQTPVNLSVFCDHNYTVEDTMHQRKRIHQLEQQVEKLRKKLKTAQLRCRRQERQLEKLKEVVHFQKEKDDVSERGYVILPNDYFEIVEVPA [Q168L]	0.433
MVQSCSAYGCKNRYDKDKPVSFHKFPLTRPSLCKEWEAAVRRKNFKPTKYSSICSEHFTPDCFKRECNNKLLKENAVPTIFLCTEPHDKKEDLLEPQEQLPPPPLPPPVSQVDAAIGLLMPPLQTPVNLSVFCDHNYTVEDTMHQRKRIHQLEQQVEKLRKKLKTAQNRCRRQERQLEKLKEVVHFQKEKDDVSERGYVILPNDYFEIVEVPA [Q168N]	0.781
MVQSCSAYGCKNRYDKDKPVSFHKFPLTRPSLCKEWEAAVRRKNFKPTKYSSICSEHFTPDCFKRECNNKLLKENAVPTIFLCTEPHDKKEDLLEPQEQLPPPPLPPPVSQVDAAIGLLMPPLQTPVNLSVFCDHNYTVEDTMHQRKRIHQLEQQVEKLRKKLKTAQPRCRRQERQLEKLKEVVHFQKEKDDVSERGYVILPNDYFEIVEVPA [Q168P]	0.186
MVQSCSAYGCKNRYDKDKPVSFHKFPLTRPSLCKEWEAAVRRKNFKPTKYSSICSEHFTPDCFKRECNNKLLKENAVPTIFLCTEPHDKKEDLLEPQEQLPPPPLPPPVSQVDAAIGLLMPPLQTPVNLSVFCDHNYTVEDTMHQRKRIHQLEQQVEKLRKKLKTAQRRCRRQERQLEKLKEVVHFQKEKDDVSERGYVILPNDYFEIVEVPA [Q168R]	0.446
MVQSCSAYGCKNRYDKDKPVSFHKFPLTRPSLCKEWEAAVRRKNFKPTKYSSICSEHFTPDCFKRECNNKLLKENAVPTIFLCTEPHDKKEDLLEPQEQLPPPPLPPPVSQVDAAIGLLMPPLQTPVNLSVFCDHNYTVEDTMHQRKRIHQLEQQVEKLRKKLKTAQSRCRRQERQLEKLKEVVHFQKEKDDVSERGYVILPNDYFEIVEVPA [Q168S]	0.477
MVQSCSAYGCKNRYDKDKPVSFHKFPLTRPSLCKEWEAAVRRKNFKPTKYSSICSEHFTPDCFKRECNNKLLKENAVPTIFLCTEPHDKKEDLLEPQEQLPPPPLPPPVSQVDAAIGLLMPPLQTPVNLSVFCDHNYTVEDTMHQRKRIHQLEQQVEKLRKKLKTAQTRCRRQERQLEKLKEVVHFQKEKDDVSERGYVILPNDYFEIVEVPA [Q168T]	0.711
MVQSCSAYGCKNRYDKDKPVSFHKFPLTRPSLCKEWEAAVRRKNFKPTKYSSICSEHFTPDCFKRECNNKLLKENAVPTIFLCTEPHDKKEDLLEPQEQLPPPPLPPPVSQVDAAIGLLMPPLQTPVNLSVFCDHNYTVEDTMHQRKRIHQLEQQVEKLRKKLKTAQVRCRRQERQLEKLKEVVHFQKEKDDVSERGYVILPNDYFEIVEVPA [Q168V]	0.249
MVQSCSAYGCKNRYDKDKPVSFHKFPLTRPSLCKEWEAAVRRKNFKPTKYSSICSEHFTPDCFKRECNNKLLKENAVPTIFLCTEPHDKKEDLLEPQEQLPPPPLPPPVSQVDAAIGLLMPPLQTPVNLSVFCDHNYTVEDTMHQRKRIHQLEQQVEKLRKKLKTAQWRCRRQERQLEKLKEVVHFQKEKDDVSERGYVILPNDYFEIVEVPA [Q168W]	0.157
MVQSCSAYGCKNRYDKDKPVSFHKFPLTRPSLCKEWEAAVRRKNFKPTKYSSICSEHFTPDCFKRECNNKLLKENAVPTIFLCTEPHDKKEDLLEPQEQLPPPPLPPPVSQVDAAIGLLMPPLQTPVNLSVFCDHNYTVEDTMHQRKRIHQLEQQVEKLRKKLKTAQYRCRRQERQLEKLKEVVHFQKEKDDVSERGYVILPNDYFEIVEVPA [Q168Y]	0.173
MVQSCSAYGCKNRYDKDKPVSFHKFPLTRPSLCKEWEAAVRRKNFKPTKYSSICSEHFTPDCFKRECNNKLLKENAVPTIFLCTEPHDKKEDLLEPQEQLPPPPLPPPVSQVDAAIGLLMPPLQTPVNLSVFCDHNYTVEDTMHQRKRIHQLEQQVEKLRKKLKTAQQACRRQERQLEKLKEVVHFQKEKDDVSERGYVILPNDYFEIVEVPA [R169A]	0.297
MVQSCSAYGCKNRYDKDKPVSFHKFPLTRPSLCKEWEAAVRRKNFKPTKYSSICSEHFTPDCFKRECNNKLLKENAVPTIFLCTEPHDKKEDLLEPQEQLPPPPLPPPVSQVDAAIGLLMPPLQTPVNLSVFCDHNYTVEDTMHQRKRIHQLEQQVEKLRKKLKTAQQCCRRQERQLEKLKEVVHFQKEKDDVSERGYVILPNDYFEIVEVPA [R169C]	0.292
MVQSCSAYGCKNRYDKDKPVSFHKFPLTRPSLCKEWEAAVRRKNFKPTKYSSICSEHFTPDCFKRECNNKLLKENAVPTIFLCTEPHDKKEDLLEPQEQLPPPPLPPPVSQVDAAIGLLMPPLQTPVNLSVFCDHNYTVEDTMHQRKRIHQLEQQVEKLRKKLKTAQQDCRRQERQLEKLKEVVHFQKEKDDVSERGYVILPNDYFEIVEVPA [R169D]	0.239
